Results reported in article PMC4166121, “Endothelial nitric oxide synthase is regulated by ERK phosphorylation at Ser^602” (Bioscience Reports, 2014).

Target: T1, biotinylated calmodulin (UniProt P0DP23 1-149, biotin (biotinylated; site not stated))
T1 construct: calmodulin (CaM); experiments done 'essentially as described in [27]'; Held by its biotin on streptavidin sensors (BLI) or a biotin CAPture chip (SPR); also called CaM; biotinylated CaM
Experiment: BLI; biotinylated CaM immobilised on streptavidin sensors; eNOS 0, 10.9, 31.9, 43.7 and 87.5 nM as analyte; 180 s association, 180 s dissociation; 10 mM HEPES pH 7.4, 100 mM NaCl, 10% glycerol, 10 uM CaCl2, 0.05% surfactant P-20; 25°C; global single-state fit
Conditions: both partners purified

koff: 0.00033 s⁻¹
B1: endothelial nitric oxide synthase phosphorylated by ERK (enzyme)
chain: MGNLKSVGQEPGPPCGLGLGLGLGLCGKQGPASPAPEPSRAPAPATPHAPDHSPAPNSPTLTRPPEGPKFPRVKNWELGSITYDTLCAQSQQDGPCTPRCCLGSLVLPRKLQTRPSPGPPPAEQLLSQARDFINQYYSSIKRSGSQAHEERLQEVEAEVASTGTYHLRESELVFGAKQAWRNAPRCVGRIQWGKLQVFDARDCSSAQEMFTYICNHIKYATNRGNLRSAITVFPQRAPGRGDFRIWNSQLVRYAGYRQQDGSVRGDPANVEITELCIQHGWTPGNGRFDVLPLLLQAPDEAPELFVLPPELVLEVPLEHPTLEWFAALGLRWYALPAVSNMLLEIGGLEFSAAPFSGWYMSTEIGTRNLCDPHRYNILEDVAVCMDLDTRTTSSLWKDKAAVEINLAVLHSFQLAKVTIVDHHAATVSFMKHLDNEQKARGGCPADWAWIVPPISGSLTPVFHQEMVNYILSPAFRYQPDPWKGSATKGAGITRKKTFKEVANAVKISASLMGTLMAKRVKATILYASETGRAQSYAQQLGRLFRKAFDPRVLCMDEYDVVSLEHEALVLVVTSTFGNGDPPENGESFAAALMEMSGPYNSSPRPEQHKSYKIRFNSVSCSDPLVSSWRRKRKESSNTDSAGALGTLRFCVFGLGSRAYPHFCAFARAVDTRLEELGGERLLQLGQGDELCGQEEAFRGWAKAAFQASCETFCVGEEAKAAAQDIFSPKRSWKRQRYRLSTQAEGLQLLPGLIHVHRRKMFQATVLSVENLQSSKSTRATILVRLDTAGQEGLQYQPGDHIGICPPNRPGLVEALLSRVEDPPPPTESVAVEQLEKGSPGGPPPSWVRDPRLPPCTLRQALTFFLDITSPPSPRLLRLLSTLAEEPSEQQELETLSQDPRRYEEWKWFRCPTLLEVLEQFPSVALPAPLLLTQLPLLQPRYYSVSSAPNAHPGEVHLTVAVLAYRTQDGLGPLHYGVCSTWLSQLKTGDPVPCFIRGAPSFRLPPDPYVPCILVGPGTGIAPFRGFWQERLHDIESKGLQPAPMTLVFGCRCSQLDHLYRDEVQDAQERGVFGRVLTAFSREPDSPKTYVQDILRTELAAEVHRVLCLERGHMFVCGDVTMATSVLQTVQRILATEGDMELDEAGDVIGVLRDQQRYHEDIFGLTLRTQEVTSRIRTQSFSLQERHLRGAVPWAFDPPGPDTPGP
modifications: phosphothreonine at 46, phosphoserine at 58, phosphoserine at 602 (by ERK in vitro; 2-3 phosphates per monomer; phosphorylation incomplete, at least 75%)
notes: endothelial nitric oxide synthase (eNOS); the residue numbers used (Thr46, Ser58, Ser602; Ser602 = human Ser600) are those of bovine eNOS; Same protein as m2 after the ERK kinase reaction (20 mM Hepes pH 7.4, 1 mM DTT, 10 mM MgCl2, 1 mM ATP, 10% glycerol, room temperature); also called ERK phosphorylated eNOS; phosphorylated eNOS
